Data published in patent US20170209558A1.

What was measured:
[1] = target: Basigin (residues 22-205) (UniProt P35613); experiment: SPR, RH5ΔNL (8 to 0.0625 µM) injected over immobilized basigin, 1:1 binding model; RH5ΔNL fragment (residues 140-526 lacking 248-296)
[2] = target: Basigin (residues 22-205) (UniProt P35613); experiment: not stated; given for comparison with the SPR value of RH5ΔNL; full-length RH5 (FLRH5)

Substance | Kd [1] | Kd [2]
RH5ΔNL (PfRH5 fragment, 7G8 strain, residues 140-526 lacking residues 248-296, C-terminal hexa-histidine tag) (from UniProt Q8IFM5 140-526) (ligand) | 1.3 µM | 
full-length PfRH5 (7G8 strain), recombinant, C-terminal hexa-histidine tag (from UniProt Q8IFM5 24-526) (ligand) |  | 1.1 µM
